According to patent US6475718:

Molecular target: orphan seven transmembrane domain receptor APJ (human) (UniProt P35414)
Test: cell-based or functional assay

Chain of UniProt P35414 (P35414 whole entry I109M/F110L, the tested form may be a part): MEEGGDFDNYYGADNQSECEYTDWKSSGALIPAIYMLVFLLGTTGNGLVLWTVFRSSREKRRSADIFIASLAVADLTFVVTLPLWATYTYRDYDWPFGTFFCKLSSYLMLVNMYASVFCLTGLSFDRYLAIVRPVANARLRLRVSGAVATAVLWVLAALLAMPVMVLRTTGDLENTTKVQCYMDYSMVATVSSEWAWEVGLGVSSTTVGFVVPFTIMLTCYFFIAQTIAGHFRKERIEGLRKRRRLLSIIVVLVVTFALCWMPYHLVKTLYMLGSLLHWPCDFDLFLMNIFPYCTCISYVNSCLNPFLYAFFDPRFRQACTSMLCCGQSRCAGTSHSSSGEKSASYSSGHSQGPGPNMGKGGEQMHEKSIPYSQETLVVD

## HIV-1 89.6 env protein (from UniProt Q73372 32-853)
  cell-cell fusion (luciferase activity), QT6 target cells with CD4 and APJ (% of that observed with CXCR4): > 70
